Experiments:
[1] = biological target: biotinylated peptide composed of amino acids 1-16 of the Aβ peptide (UniProt P05067); assay: phage ELISA screen of colonies after biopanning, negative control
β-amyloid peptide 1-40 = β-amyloid peptide 1-40 (UniProt P05067); assay: cell-based or functional assay

Row | Substance | absorbance at 492 nm (OD) [1] | Percent Aggregation (ThT emission at 485 nm), plus 1 µM 10D5 (β-amyloid peptide 1-40) | Percent Disaggregation (ThT), plus 1 µM 10D5 (β-amyloid peptide 1-40)
1 | helper phage M13KO7 | 0.003 to 0.005 OD |  | 
2 | 10D5 (monoclonal antibody against the N terminus of Aβ peptide) |  | 61.4% | 38.6%
